Biological target: p53, recombinant (UniProt P04637 1-393)
Assay: BLI

Sequence of p53, recombinant (P04637 whole entry): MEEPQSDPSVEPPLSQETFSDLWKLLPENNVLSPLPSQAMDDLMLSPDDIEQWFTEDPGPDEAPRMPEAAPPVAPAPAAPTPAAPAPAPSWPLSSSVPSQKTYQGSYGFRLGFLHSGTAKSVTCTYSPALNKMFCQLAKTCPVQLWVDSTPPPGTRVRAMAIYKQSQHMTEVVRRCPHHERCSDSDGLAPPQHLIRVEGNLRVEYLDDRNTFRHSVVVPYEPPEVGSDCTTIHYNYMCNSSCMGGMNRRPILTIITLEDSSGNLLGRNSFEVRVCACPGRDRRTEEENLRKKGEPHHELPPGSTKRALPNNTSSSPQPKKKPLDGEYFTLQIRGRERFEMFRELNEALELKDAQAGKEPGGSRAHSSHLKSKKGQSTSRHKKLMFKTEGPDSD

B1: recombinant HMGB1 B box (domain or fragment)
chain: KFKDPNAPKRPPSAFFLFCSEYRPKIKGEHPGLSIGDVAKKLGEMWNNTAADDKQPYEKKAAKLKEKYEKDIAAY
modifications: Limits not given; 88-162 is the usual B box construct of the source laboratory (Tracey).
Kd: 0.0145 µM
